For this assay, the target named is mouse VPS29 (isotopically labelled NMR sample) (mouse). Nature of the assay: NMR titration; SNX1 titrated into 0.1 mM 15N-labelled VPS29, soFast 15N HMQC, 298 K, 600 MHz; 10 mM HEPES (pH 7.5), 100 mM NaCl, DTT.

What is called Kd is a measure of binding affinity in units of concentration. A lower Kd goes with a tighter complex.

“human SNX1 (recombinant, for NMR titrations) (from UniProt Q13596 1-522) (natural protein)”: the dissociation constant Kd was > 150 µM.

The values are drawn from article PMC3101248.
